The assay addresses T1, untagged NDP52 wild type (human), Q13137.
T1 chain: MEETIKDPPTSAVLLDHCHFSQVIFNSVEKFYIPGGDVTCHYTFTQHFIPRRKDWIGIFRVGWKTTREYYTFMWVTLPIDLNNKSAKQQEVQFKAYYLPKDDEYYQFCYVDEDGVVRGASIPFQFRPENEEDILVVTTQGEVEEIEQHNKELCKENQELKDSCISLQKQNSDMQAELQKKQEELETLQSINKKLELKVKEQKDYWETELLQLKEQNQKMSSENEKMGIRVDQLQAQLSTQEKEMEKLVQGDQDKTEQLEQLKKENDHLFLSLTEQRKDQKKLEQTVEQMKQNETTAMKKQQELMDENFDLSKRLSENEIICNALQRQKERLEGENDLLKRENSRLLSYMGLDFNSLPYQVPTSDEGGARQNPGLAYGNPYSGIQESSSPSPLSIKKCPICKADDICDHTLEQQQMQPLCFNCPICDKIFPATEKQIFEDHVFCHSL
The assay can be described thus: native gel or EMSA; blue native PAGE (4–16% NativePAGE gel, Coomassie G-250) of recombinant NDP52 WT and Mut, immunoblot. The note with it: remark: other sources report otherwise.

B1: untagged NDP52 wild type, Q13137 1-446 (natural protein)
chain: T1 chain
One may read the stoichiometry N as a count of units in the complex or per binding partner. Consider B1, for which the stoichiometry N was found to be 2.

For the origin of these results see PMC9975939.
